Measurements as given in US20230270861A1, “Inhibitors of the Artemin Pathway for Treatment of Cancer” (The University of Chicago, priority 2020, published 2023).

What was measured:
MC38 cells = experiment: Colony formation assay of irradiated MC38 cells; format: cell-based, mouse; settings: 0, 1 or 3 Gy; 100 ng/mL artemin
Experimental: FIG. 40. Colony formation assay of MC38 cells treated with 0, 1, or 3 Gy irradiation. MC38 cells were either co-cultured with 2×10^6 Ter-cells (left) sorted from spleens of tumor-bearing mice, or treated with 100 ng/mL artemin (right). Representative data are shown from three experiments. Data are represented as mean±SD. *p<0.05, **p<0.01, and ***p<0.001.

[1] = system: CD8 T cells and bone marrow derived MDSCs; experiment: qPCR of possible artemin receptors in CD8 T cells and MDSCs co-cultured with artemin; format: cell-based, mouse; settings: co-culture with artemin
Source text: (§1) FIGS. 73A-73D. Study of the effects of artemin and radiation on mRNA expression of possible artemin receptors in different immune cells. (FIG. 73A) mRNA level of known GDNF receptors in CD8+ T cells after co-culture with artemin. (FIG. 73B) mRNA level of known GDNF receptors in MDSCs (CD11b+Ly6C+) cells. GFRα1, GFRα3 and NCAM expression in DC (FIG. 73C) and natural killer (NK) cells (FIG. 73D) in tumors responding to artemin or/and radiation treatments. R1, GFRα1; R3, GFRα3.
Quantitative PCR (qPCR). Expression of possible artemin receptors GFRα1 (primers: SEQ ID NOs: 5, 6), GFRα3 (primers: SEQ ID NOs: 7, 8), Syndecan 3 (primers: SEQ ID NOs: 9, 10), NCAM (primers: SEQ ID Nos: 11, 12), and RET (SEQ ID Nos: 13, 14) was analyzed by qPCR in CD8 T cells and bone marrow derived MDSCs during co-culture with artemin.

MC38-OTI-zsGreen cells = experiment: CD8+ T cell mediated killing (apoptosis) of MC38-OTI-zsGreen cells; format: cell-based, mouse; settings: 100 ng/mL artemin for 6 h
Experimental: FIGS. 41A-41B. (FIG. 41A) Apoptosis of MC38 cells as analyzed by flow cytometry. 1×10^5 MC38-OTI-zsGreen cells were co-cultured with 2×10^5 CD8^+ T cells purified from OTI mice in 96-well U bottomed plates. Tumor cells were either co-cultured with 2×10^5 Ter-cells sorted from spleens of tumor-bearing mice or treated with 100 ng/mL artemin for 6 h. Representative data are shown from three experiments. Data are represented as mean±SD. *p<0.05, **p<0.01 and ***p<0.001. (FIG. 41B) Apoptosis of MC38 cells was analyzed by flow cytometry. 1×10^5 MC38-OTI-zsGreen cells were co-cultured with 2×10^5 CD8+ T cells purified from OTI mice in 96-well U bottom plates. Tumor cells were either co-cultured with 2×10^5 Ter-cells sorted from spleen of tumor-bearing mice or treated with 100 ng/mL artemin (ARTN) for 6 h. Representative data are shown from two or three experiments conducted with 3-5 mice or samples per group.

[2] = system: MC38 murine colon cancer tumors; experiment: In vivo MC38 murine colon cancer treatment with artemin (i.t.), flow cytometry of tumor cells; design: species or system mouse
Experimental: (§2) FIGS. 71A-71I. […] (FIGS. 71A-71E) CD8 T cells were purified from WT spleen and treated with recombinant artemin for 24 hours (150 ng/mL for FIGS. 71B, 71C, 71D, and 71E). T proliferation was examined (FIG. 71A), and the indicated effector molecules were analyzed by flow cytometry (FIGS. 71B, 71C, and 71D) and q-PCR (FIG. 71E). (FIGS. 71F-71I) MC38 murine colon cancer tumors were treated with artemin (i.t.), and single cell suspensions of tumors were stained with indicated markers and examined by flow cytometry (FIGS. 71F, 71G, 71H, and 71I).
FIGS. 72A-72C. […] MC38 tumor were digested into single cell suspension and stained with markers that characterize T cells, DCs, and MDSCs. Flow cytometry was performed. […] (FIG. 72B) Changes in CD4 T cells.
In vivo testing: MC38 murine colon cancer treatment with artemin. Established MC3 8 murine colon cancer tumors were treated with artemin by intra-tumoral injection. Tumors were digested into single cell suspension, stimulated and stained with intracellular antibodies. Cells were analyzed by flow cytometry.

[3] = system: Lewis lung carcinoma (LLC) tumors; experiment: Flow cytometry of GFRα1, GFRα3 and NCAM in LLC tumors treated with artemin and/or IR; format: in vivo, mouse
Source text: as §1
Radiation (IR) treatment analysis. We treated established Lewis lung carcinoma (LLC) tumors with control, artemin, IR, and artemin+IR (20 Gy IR). Flow cytometry with staining of GFRα1, GFRα3 and NCAM receptors was performed.

CD8 T cells = experiment: In vitro CD8 T cell treatment with artemin; format: cell-based, mouse; settings: 24 hours
Experimental: as §2
In vitro testing: CD8 T cell treatment with artemin. CD8 T cells were isolated from spleens of naïve mice. CD8 T cells were cultured with T cell activation beads for 3 days and labeled with DNA dye cellTrace violet, followed by co-culturing with 150 ng/mL recombinant artemin for 24 hours. T cells were then washed and stimulated by stimulation cocktail and protein transport cocktail for 6 hours before being subjected to intracellular antibody staining.

LLC tumor = experiment: Tumor growth of LLC tumor-bearing mice treated with IR or anti-PD-L1 plus test agent; format: in vivo, mouse; settings: LLC tumor-bearing B6 mice; agent combined with 20 Gy IR or anti-PD-L1
Experimental: Tumor models and treatments. 1×10^6 MC38, LLC, or B16-SIY tumor cells were subcutaneously injected into the flank of mice. On day 10 after tumor inoculation, tumors were either irradiated with one dose of 20 Gy or mice received sham treatment. For anti-PD-L1 treatment experiments, 200 μg anti-PD-L1 (10F.9G2) or isotype control was given by i.p. every three days for a total of four times starting on day 10 after tumor inoculation. For type I IFN blockade experiments, 200 μg anti-IFNAR1 were intratumorally injected on days 0 and 2 after irradiation. For CD4 or CD8 T cell depletion experiments, 200 μg anti-CD4 or anti-CD8 mAb was delivered four times by i.p. injection every 3 days starting 1 day before therapies. Artemin-neutralizing antibody was delivered i.t. at 1 μg/mouse starting on day of irradiation, every 2 days for 7 doses. For Ter-cell depletion, anti-ter119 was injected i.p. at 20 μg/mouse every 2 days for 4 doses. For Ter-cell or artemin treatment groups, mice were administered 1×10^7 purified Ter cells i.v. every other day for a total of three doses, or mice were treated with 0.5 μg/mouse artemin i.t. every other day starting on day 0 of therapies throughout the studies. For EPO treatment groups, mice were treated with 20 U/mouse EPO i.v. every other day throughout the studies, starting on day 0 of the therapies. IFN-γ was administered through intrasplenic injection on day 15 post tumor implantation at 2 μg/mouse for 1 dose. LOXO-292 was administered by oral gavaging at 100 μg/mouse/day throughout the entire studies, starting on day 0 of the therapies. Spleens were harvested on day 20 or at indicated times post-inoculation for analysis of spleen size or splenic cells. Tumor size was monitored and calculated with the formula for area (length×width).

B1: artemin: Recombinant mouse artemin (1085-AR) from R&D Systems; neurotropic factor of the GDNF family (protein)
chain: AGTRSSRARTTDARGCRLRSQLVPVSALGLGHSSDELIRFRFCSGSCRRARSQHDLSLASLLGAGALRSPPGSRPISQPCCRPTRYEAVSFMDVNSTWRTVDHLSATACGCLG
Radio-resistance of MC38 tumor cells (colony formation) (MC38 cells): increased the radio-resistance | GFRα1 mRNA in MDSC cells [1]: induction of GFRα1 | GFRα3 mRNA in CD8 T cells [1]: Induction of GFRα3 | CD8+ T cell mediated killing of tumor cells (MC38-OTI-zsGreen cells): impaired | CD4 T helper cell numbers [2]: not significantly changed | PD-L1 expression on dendritic cells (CD11C+) and MDSCs (CD11b+Ly6C+) [2]: induced PD-L1 expression | Treg percentage in CD4 T cells [2]: significantly increased | Frequency of total CD8 T cell among CD45+ cells ([2]; artemin i.t.): did not alter frequency | IFN-γ production in intratumoral T cells ([2]; artemin i.t.): not significant | Production of granzyme B and TNFα proteins in intratumoral T cells ([2]; artemin i.t.): significantly reduced | Expression of exhaustion markers PD-1, LAG3 and TIM3 ([2]; intratumoral T cells): did not change the expression | GFRα3 expression on NK cells [3]: induces GFRα3 expression | CD8 T cell proliferation (CD8 T cells; 200 ng/mL): reduced CD8 T cell proliferation | Production of IFN-γ, granzyme B and TNFα in T cells (protein and RNA level) (CD8 T cells): decreases in production | Tumor growth: influence on the therapeutic effect of IR and PD-L1 blockade (LLC tumor): diminished the anti-tumor effects of IR and PD-L1 blockade
